Measurements as given in patent US20200377579A1 (Biogen, published 2020).

What was measured:
aggregated α-synuclein [1] = molecular target: T1, aggregated α-synuclein (human, UniProt P37840 1-140); assay: in vitro binding, method not stated; same EC50 in mass units
aggregated α-synuclein [2] = molecular target: T1, aggregated α-synuclein; assay: in vitro binding, method not stated; estimated from binding constants

EC50 (aggregated α-synuclein [1]): ~0.0375 µg/mL
EC50 (aggregated α-synuclein [2]): ~0.25 nM
B1: BIIB054 (antibody, human IgG1, lambda, V domains shown)
VH: EVQLVESGGGLVEPGGSLRLSCAVSGFDFEKAWMSWVRQAPGQGLQWVARIKSTADGGTTSYAAPVEGRFIISRDDSRNMLYLQMNSLKTEDTAVYYCTSAHWGQGTLVTVSS
VL: SYELTQPPSVSVSPGQTARITCSGEALPMQFAHWYQQRPGKAPVIVVYKDSERPSGVPERFSGSSSGTTATLTITGVQAEDEADYYCQSPDSTNTYEVFGGGTKLTVLS
notes: Fully human IgG1/lambda monoclonal antibody; also called anti-α-synuclein antibody
